Data from US7109167.
Positions of bridges follow the written chain, without caps; N, C: chain ends. No end group written: not given here.

What was measured:
[1] = molecular target: endothelial cell receptor for TKPPR on human aortic endothelial cells (HAEC); test: fluorescent beads on confluent HAEC, static, Experiment 1, image analysis
[2] = molecular target: endothelial cell receptor for TKPPR on human aortic endothelial cells (HAEC); test: beads perfused over HAEC in a parallel plate flow cell, 1.53 dynes/cm^2
[3] = molecular target: endothelial cell receptor for TKPPR on human aortic endothelial cells (HAEC); test: competition on HAEC: BRU-305 100 µM against 2% BRU-114 bubbles
[4] = molecular target: endothelial cell receptor for TKPPR on human aortic endothelial cells (HAEC); test: competition on HAEC: BRU-305 200 µM against 2% BRU-114 bubbles
[5] = molecular target: endothelial cell receptor for TKPPR on human aortic endothelial cells (HAEC); test: competition on HAEC: BRU-305 50 µM against 2% BRU-114 bubbles
[6] = molecular target: endothelial cell receptor for TKPPR on human aortic endothelial cells (HAEC); test: competition on HAEC: tuftsin 100 µM against 1% BRU-114 bubbles
[7] = molecular target: endothelial cell receptor for TKPPR on human aortic endothelial cells (HAEC); test: competition on HAEC: tuftsin 10 µM against 1% BRU-114 bubbles
[8] = molecular target: endothelial cell receptor for TKPPR on human aortic endothelial cells (HAEC); test: competition on HAEC: tuftsin 5 µM against 1% BRU-114 bubbles
[9] = molecular target: endothelial cell receptor for TKPPR on human aortic endothelial cells (HAEC); test: competition on HAEC: tuftsin 25 µM against 1% BRU-114 bubbles
[10] = molecular target: endothelial cell receptor for TKPPR on human aortic endothelial cells (HAEC); test: competition on HAEC: tuftsin 50 µM against 1% BRU-114 bubbles
[11] = molecular target: endothelial cell receptor for TKPPR on human aortic endothelial cells (HAEC); test: competition on HAEC: free TKPPR 50 µM against 5% BRU-114 bubbles
[12] = molecular target: endothelial cell receptor for TKPPR on human aortic endothelial cells (HAEC); test: competition on HAEC: free TKPPR 10 µM against 10% BRU-114 bubbles
[13] = molecular target: endothelial cell receptor for TKPPR on human aortic endothelial cells (HAEC); test: competition on HAEC: free TKPPR 25 µM against 1% BRU-292 bubbles, average of two
[14] = molecular target: endothelial cell receptor for TKPPR on human aortic endothelial cells (HAEC); test: competition on HAEC: free TKPPR 200 µM against 5% BRU-114 bubbles
[15] = molecular target: endothelial cell receptor for TKPPR on human aortic endothelial cells (HAEC); test: competition on HAEC: free TKPPR 100 µM against 1% BRU-114 bubbles
[16] = molecular target: endothelial cell receptor for TKPPR on human aortic endothelial cells (HAEC); test: competition on HAEC: free TKPPR 50 µM against 1% BRU-114 bubbles, average of two
[17] = molecular target: endothelial cell receptor for TKPPR on human aortic endothelial cells (HAEC); test: competition on HAEC: free TKPPR 10 µM against 1% BRU-114 bubbles, average of two
[18] = molecular target: endothelial cell receptor for TKPPR on human aortic endothelial cells (HAEC); test: competition on HAEC: free TKPPR 2.5 µM against 1% BRU-114 bubbles, average of two
[19] = molecular target: endothelial cell receptor for TKPPR on human aortic endothelial cells (HAEC); test: competition on HAEC: free TKPPR 25 µM against 2% BRU-114 bubbles
[20] = molecular target: endothelial cell receptor for TKPPR on human aortic endothelial cells (HAEC); test: competition on HAEC: free TKPPR 25 µM against 1% BRU-114 bubbles, average of two
[21] = molecular target: endothelial cell receptor for TKPPR on human aortic endothelial cells (HAEC); test: competition on HAEC: free TKPPR 50 µM against 10% BRU-114 bubbles
[22] = molecular target: endothelial cell receptor for TKPPR on human aortic endothelial cells (HAEC); test: competition on HAEC: free TKPPR (head: 10 µmol; text: 10 µM) against 1% BRU-114 bubbles
[23] = molecular target: endothelial cell receptor for TKPPR on human aortic endothelial cells (HAEC); test: competition on HAEC: free TKPPR 50 µM against 1% BRU-292 bubbles, average of two
[24] = molecular target: endothelial cell receptor for TKPPR on human aortic endothelial cells (HAEC); test: competition on HAEC: free TKPPR (head: 100 µmol; text: 100 µM) against 5% BRU-114 bubbles
[25] = molecular target: endothelial cell receptor for TKPPR on human aortic endothelial cells (HAEC); test: competition on HAEC: free TKPPR 200 µM against TKPPR-beads, average n = 11
[26] = molecular target: endothelial cell receptor for TKPPR on human aortic endothelial cells (HAEC); test: competition on HAEC: free TKPPR 100 µM against 5% BRU-114 bubbles
[27] = molecular target: endothelial cell receptor for TKPPR on human aortic endothelial cells (HAEC); test: competition on HAEC: free TKPPR 100 µM against TKPPR-beads, average n = 11
VEGF receptors on HUVECs = test: competition of 125I-VEGF binding to HUVECs
[28] = molecular target: endothelial cell receptor for TKPPR on human aortic endothelial cells (HAEC); test: competition on HAEC: free TKPPR 5 µM against 1% BRU-114 bubbles
[29] = molecular target: endothelial cell receptor for TKPPR on human aortic endothelial cells (HAEC); test: competition on HAEC: free TKPPR 200 µM against 10% BRU-114 bubbles
[30] = molecular target: endothelial cell receptor for TKPPR on human aortic endothelial cells (HAEC); test: competition on HAEC: free TKPPR 10 µM against 1% BRU-292 bubbles, average of two
[31] = molecular target: endothelial cell receptor for TKPPR on human aortic endothelial cells (HAEC); test: competition on HAEC: free TKPPR 25 µM against TKPPR-beads, average n = 11
[32] = molecular target: endothelial cell receptor for TKPPR on human aortic endothelial cells (HAEC); test: competition on HAEC: free TKPPR (head: 10 µmol; text: 10 µM) against 5% BRU-114 bubbles
[33] = molecular target: endothelial cell receptor for TKPPR on human aortic endothelial cells (HAEC); test: competition on HAEC: free TKPPR 50 µM against 1% BRU-114 bubbles
[34] = molecular target: receptor for TKPPR on rabbit aortic endothelial cells (RAEC); test: competition on RAEC: free TKPPR 100 µM against 5% BRU-114 bubbles
[35] = molecular target: endothelial cell receptor for TKPPR on human aortic endothelial cells (HAEC); test: competition on HAEC: free TKPPR 2.5 µM against 1% BRU-292 bubbles, average of two
[36] = molecular target: endothelial cell receptor for TKPPR on human aortic endothelial cells (HAEC); test: competition on HAEC: free TKPPR 10 µM against 1% BRU-114 bubbles
[37] = molecular target: endothelial cell receptor for TKPPR on human aortic endothelial cells (HAEC); test: competition on HAEC: free TKPPR 25 µM against 1% BRU-114 bubbles
[38] = molecular target: endothelial cell receptor for TKPPR on human aortic endothelial cells (HAEC); test: competition on HAEC: free TKPPR 100 µM against 10% BRU-114 bubbles
[39] = molecular target: endothelial cell receptor for TKPPR on human aortic endothelial cells (HAEC); test: competition on HAEC: free TKPPR 10 µM against 5% BRU-114 bubbles
[40] = molecular target: endothelial cell receptor for TKPPR on human aortic endothelial cells (HAEC); test: competition on HAEC: free TKPPR 500 µM against TKPPR-beads, average n = 11
[41] = molecular target: endothelial cell receptor for TKPPR on human aortic endothelial cells (HAEC); test: competition on HAEC: free TKPPR 200 µM against 1% BRU-114 bubbles
[42] = molecular target: endothelial cell receptor for TKPPR on human aortic endothelial cells (HAEC); test: competition on HAEC: free TKPPR 50 µM against TKPPR-beads, average n = 11
[43] = molecular target: endothelial cell receptor for TKPPR on human aortic endothelial cells (HAEC); test: competition on HAEC: free TKPPR (head: 100 µmol; text: 100 µM) against 1% BRU-114 bubbles
[44] = molecular target: endothelial cell receptor for TKPPR on human aortic endothelial cells (HAEC); test: competition on HAEC: free TKPPR 10 µM against TKPPR-beads, average n = 11
[45] = molecular target: endothelial cell receptor for TKPPR on human aortic endothelial cells (HAEC); test: competition on HAEC: BRU-306 200 µM against 2% BRU-114 bubbles
[46] = molecular target: endothelial cell receptor for TKPPR on human aortic endothelial cells (HAEC); test: competition on HAEC: BRU-306 50 µM against 2% BRU-114 bubbles
[47] = molecular target: endothelial cell receptor for TKPPR on human aortic endothelial cells (HAEC); test: competition on HAEC: BRU-306 100 µM against 2% BRU-114 bubbles

TKPPR (also: coupled by EDAC to carboxylate-modified microspheres) [TKPPR-conjugated red fluorescent microspheres]
Integrated density of bound beads (arbitrary units) [1]: 230
beads bound at 1.53 dynes/cm^2 [2]: 86 beads

CTKPPRC [Linear CTKPPRC (BRU-305)]
Bubbles Bound % [3]: 78 % of control
Bubbles Bound % [4]: 88 % of control
Bubbles Bound % [5]: 97 % of control

TKPR [Tuftsin (TKPR)]
Bubbles Bound [6]: 556 bubbles
Bubbles Bound [7]: 976 bubbles
Bubbles Bound [8]: 1150 bubbles
Bubbles Bound [9]: 1170 bubbles
Bubbles Bound [10]: 904 bubbles

GRGDSP (also: coupled by EDAC to carboxylate-modified microspheres) [GRGDSP-conjugated fluorescent microspheres]
Integrated density of bound beads (arbitrary units) [1]: 28.6

TKPPR-OH [TKPPR (L-threonyl-L-lysyl-L-prolyl-L-prolyl-L-arginine), free monomeric peptide]
Bubbles Bound-5% [11]: 440 bubbles
Bubbles Bound-10% [12]: 1090 bubbles
Bubbles Bound-BRU-292 Formulation [13]: 718 bubbles
Bubbles Bound-5% [14]: 13 bubbles
Average % Inhibition [15]: 93.7%
Bubbles Bound [15]: 17 bubbles
Bubbles Bound-1% [15]: 4 bubbles
Bubbles Bound-BRU-114 Formulation [16]: 9 bubbles
Bubbles Bound-BRU-114 Formulation [17]: 535 bubbles
Bubbles Bound-BRU-114 Formulation [18]: 1240 bubbles
Bubbles Bound % [19]: 16 % of control
Bubbles Bound-BRU-114 Formulation [20]: 75 bubbles
Bubbles Bound-10% [21]: 857 bubbles
Bubbles Bound [22]: 96 bubbles
Bubbles Bound-BRU-292 Formulation [23]: 462 bubbles
Bubbles Bound [24]: 62 bubbles
% Inhibition [25]: 72.2%
Bubbles Bound-5% [26]: 12 bubbles
HAEC bubbles bound [26]: 58 bubbles
% Inhibition [27]: 62%
IC50 (VEGF receptors on HUVECs): 250 µM
Average % Inhibition [28]: 45.7%
Bubbles Bound [28]: 790 bubbles
Bubbles Bound-10% [29]: 66 bubbles
Bubbles Bound-BRU-292 Formulation [30]: 833 bubbles
% Inhibition [31]: 50.7%
Bubbles Bound [32]: 865 bubbles
Average % Inhibition [33]: 92.7%
Bubbles Bound [33]: 56 bubbles
Bubbles Bound-1% [33]: 5 bubbles
RAEC bubbles bound [34]: 21 bubbles
Bubbles Bound-BRU-292 Formulation [35]: 888 bubbles
% inhibition of bubble binding [36]: 82.7%
Average % Inhibition [36]: 79.6%
Bubbles Bound [36]: 528 bubbles
Bubbles Bound-1% [36]: 10 bubbles
Average % Inhibition [37]: 82%
Bubbles Bound [37]: 106 bubbles
Bubbles Bound-10% [38]: 399 bubbles
% more bubbles bound than without competitor [39]: 19%
Bubbles Bound-5% [39]: 1340 bubbles
% Inhibition [40]: 70.6%
Bubbles Bound-1% [41]: 4 bubbles
% Inhibition [42]: 50.5%
Bubbles Bound [43]: 5 bubbles
% Inhibition [44]: 30.8%

CTKPPRC-OH (disulfide 1-7 (inferred)) [Cyclic disulfide CTKPPRC (BRU-306)]
Bubbles Bound % [45]: 99 % of control
Bubbles Bound % [46]: 97 % of control
Bubbles Bound % [47]: 71 % of control

B1: TKPPR tetramer BRU-326, OG-(TKPPR)4 (peptide)
peptide: TKPPR-OH
modifications: not fully specified (N-terminus); printed as OG-(TKPPR)4; also: tetramer: four TKPPR chains joined via branched tetra-acid scaffold
IC50 (VEGF receptors on HUVECs): 10 µM
